The target in assay [1] is HSL3 ectodomain (wild type, residues 23–627). In words: ITC. The note with it: ligand in syringe, receptor in cell; N = 1.
For the next assay, the target named is CTNIP4(46–70)_(Cys–Cys). The experiment in a line: ITC. The following applies: ligand in syringe, receptor in cell; N = 1.
The next assay has as its target SERK3. In words: ITC. The note with it: SERK3 in syringe; HSL3 + peptide in cell; N = 1.
Assay [2] addresses HSL3 ectodomain (wild type, residues 23–627) (Arabidopsis). The experiment in a line: ITC; CTNIP4 peptide (140–800 µM, syringe) injected into 15 µM HSL3 ectodomain or variant (cell); 25 °C; 20 mM sodium citrate, 150 mM NaCl, pH 5.0; N fitted to 1.
Assay [3] addresses SERK1 ectodomain (residues 24–213) (UniProt Q94AG2). In words: ITC. The note with it: SERK1 in syringe; HSL3 + peptide in cell; N = 1.

A word on the Kd: it is the free concentration of one partner at which half of the binding sites on the other are occupied at equilibrium, for simple one-to-one binding. A high value points to lower affinity.

SERK1 ectodomain (residues 24–213), sequence (Q94AG2 whole entry, looked up, the tested form may be a part): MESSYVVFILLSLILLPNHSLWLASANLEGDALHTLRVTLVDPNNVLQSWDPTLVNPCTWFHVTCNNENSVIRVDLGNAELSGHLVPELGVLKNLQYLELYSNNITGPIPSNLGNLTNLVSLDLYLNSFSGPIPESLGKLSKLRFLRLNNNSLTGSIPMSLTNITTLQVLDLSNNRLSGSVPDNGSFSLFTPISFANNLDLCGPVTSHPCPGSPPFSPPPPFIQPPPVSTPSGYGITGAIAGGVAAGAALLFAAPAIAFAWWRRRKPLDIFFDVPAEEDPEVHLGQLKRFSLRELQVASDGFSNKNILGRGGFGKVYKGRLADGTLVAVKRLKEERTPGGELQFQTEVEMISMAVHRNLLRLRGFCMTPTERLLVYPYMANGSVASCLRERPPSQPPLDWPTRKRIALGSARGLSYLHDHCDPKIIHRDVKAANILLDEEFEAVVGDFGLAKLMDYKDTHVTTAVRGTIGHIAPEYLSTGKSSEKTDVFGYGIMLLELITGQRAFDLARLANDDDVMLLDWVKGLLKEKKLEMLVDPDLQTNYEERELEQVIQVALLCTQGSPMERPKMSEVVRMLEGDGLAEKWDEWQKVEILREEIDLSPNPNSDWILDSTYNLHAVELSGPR

With CTNIP4(46–70)_(Cys–Cys) S53A, in assay [1], the Kd was found to be 3.44 µM and the other: ΔH is -17.5 kcal/mol.

“HSL3 ectodomain (wild type, residues 23–627) R358A”: in the assay with CTNIP4(46–70)_(Cys–Cys), the Kd was 0.112 µM and the other: ΔH is -25.9 kcal/mol.

Take “HSL3–CTNIP4 complex (HSL3 ectodomain pre-incubated with CTNIP4(46–70)_(Cys–Cys)) N60A”: the other: ΔH with SERK3 turned out to be 3.3 kcal/mol.

“HSL3 ectodomain (wild type, residues 23–627) D241A” returned an other: ΔH with CTNIP4(46–70)_(Cys–Cys) of -17.6 kcal/mol.

Take “HSL3 ectodomain (wild type, residues 23–627) E171A”: in the assay with CTNIP4(46–70)_(Cys–Cys), the other: ΔH was -21.2 kcal/mol.

For the substance “HSL3–CTNIP4 complex (HSL3 ectodomain pre-incubated with CTNIP4(46–70)_(Cys–Cys)) N60F”, the other: ΔH with SERK3 amounted to 13.2 kcal/mol.

As to “HSL3 ectodomain (wild type, residues 23–627) D288A”, the other: ΔH with CTNIP4(46–70)_(Cys–Cys) was -3.4 kcal/mol.

In assay [2], “CTNIP4^C58A.C68A(46–70)_(linear) (peptide)” returned a fold impairment of binding against CTNIP4(46–70) (Cys–Cys) of 200 fold.

Take “HSL3–CTNIP4 complex (HSL3 ectodomain pre-incubated with CTNIP4(46–70)_(Cys–Cys)) C58A; C68A”: the other: ΔH in assay [3] was -7.1 kcal/mol.

As for HSL3 + CTNIP4(46–63) C58A, the other: ΔH in assay [3] is -3.7 kcal/mol.

The values are drawn from article PMC13585564.
